Data published in patent publication US20160015827A1 (BIOALLIANCE C V, published 2016).

Experiments:
[1] = biological target: T1, human folate receptor alpha (FRA) (human, UniProt P15328 25-234); test: flow cytometry on OVCAR-3B cells, 1.1 µg/mL
T1 construct: In the assays FRA is the endogenous protein on FRA-expressing human cancer cell lines (SK-OV-3, OVCAR-3, OVCAR-3B, NCI-H2110, NCI-H292); also called human FRA
Experimental: (§1) 1×10⁵ cells were seeded per well in a v-bottomed 96-well plate and incubated with 50 μl of the unconjugated Abs or the ADCs at titrated concentrations or isotype control antibody human IgG at 10 μg/mL. After 60 minutes of incubation at 4° C., cells were washed once with 200 μl FACS buffer (1×PBS containing 1% FBS), stained with 50 μl of 1 μg/ml goat F(ab′)2-anti-human IgG (H+L)-RPE or goat anti-human IgG-RPE (SOUTHERN BIOTECH®, Cat. No. 2043-09 or 2040-09) in FACS buffer and then incubated at 4° C. for 30 min Cells were washed once with FACS buffer and analyzed by flow cytometer (BD LSR, BD Life Sciences).
(§2) The binding activities of site-specific conjugates of hLK26-Cys variants-Tap18Hr1 were evaluated by flow cytometric analysis in ovarian cancer SK-OV-3 and OVCAR-3B (Table 9-10) and lung cancer NCI-H2110 and NCI-H292 (Table 11-12) cells. The Mean fluorescence intensity (MFI) values in the tables represent binding activity of ADCs at tested concentration. […] The IgG4p variants-Tap18Hr1 conjugates also bind to all the FRA positive cancer cells tested here, but the fluorescent intensities were generally lower than those observed with IgG1 variants. This decrease in binding activity is likely attributed to IgG4 isotype rather than cysteine mutation. Overall, the site-specific conjugated hLK26-Cys variants retain antigen reactivity to the ovarian and lung cancer cells tested.

[2] = biological target: T1, human folate receptor alpha (FRA); test: flow cytometry on SK-OV-3 cells, 1.1 µg/mL
Experimental: as §1, §2

[3] = biological target: T1, human folate receptor alpha (FRA); test: flow cytometry on NCI-H2110 cells, 3.3 µg/mL
Experimental: as §1, §2

[4] = biological target: T1, human folate receptor alpha (FRA); test: flow cytometry on NCI-H292 cells, 3.3 µg/mL
Experimental: as §1, §2

T1 sequence (P15328 25-234 limits assumed): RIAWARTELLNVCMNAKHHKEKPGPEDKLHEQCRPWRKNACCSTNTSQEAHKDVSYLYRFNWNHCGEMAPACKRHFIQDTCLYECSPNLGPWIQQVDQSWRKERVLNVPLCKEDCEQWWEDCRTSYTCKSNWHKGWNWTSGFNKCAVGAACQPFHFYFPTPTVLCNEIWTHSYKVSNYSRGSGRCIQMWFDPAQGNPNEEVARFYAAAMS

B1: hLK26-T155C-IgG4p-Tap18Hr1 (antibody, name in EU numbering)
heavy: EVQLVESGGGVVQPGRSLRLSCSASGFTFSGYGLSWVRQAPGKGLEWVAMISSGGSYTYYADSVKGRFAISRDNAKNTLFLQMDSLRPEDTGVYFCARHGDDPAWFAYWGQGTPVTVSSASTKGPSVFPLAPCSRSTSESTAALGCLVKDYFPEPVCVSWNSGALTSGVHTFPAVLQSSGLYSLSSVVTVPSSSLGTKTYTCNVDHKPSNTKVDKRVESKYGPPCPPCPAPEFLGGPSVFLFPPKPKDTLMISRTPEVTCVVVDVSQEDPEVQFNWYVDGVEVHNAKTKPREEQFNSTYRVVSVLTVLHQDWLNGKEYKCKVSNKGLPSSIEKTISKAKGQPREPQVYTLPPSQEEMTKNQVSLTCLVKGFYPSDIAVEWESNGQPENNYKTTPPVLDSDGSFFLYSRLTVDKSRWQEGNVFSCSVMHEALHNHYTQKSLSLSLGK
light: DIQLTQSPSSLSASVGDRVTITCSVSSSISSNNLHWYQQKPGKAPKPWIYGTSNLASGVPSRFSGSGSGTDYTFTISSLQPEDIATYYCQQWSSYPYMYTFGQGTKVEIKRTVAAPSVFIFPPSDEQLKSGTASVVCLLNNFYPREAKVQWKVDNALQSGNSQESVTEQDSKDSTYSLSSTLTLSKADYEKHKVYACEVTHQGLSSPVTKSFNRGEC
modifications: Tap18Hr1 linker-drug on the introduced Cys 155 (EU numbering)
notes: Site-specific ADC
- MFI [1]: 806 MFI
- MFI [2]: 1890 MFI
- MFI [3]: 494 MFI
- MFI [4]: 1180 MFI

B2: hLK26-IgG1 (antibody)
heavy: not shown
light: DIQLTQSPSSLSASVGDRVTITCSVSSSISSNNLHWYQQKPGKAPKPWIYGTSNLASGVPSRFSGSGSGTDYTFTISSLQPEDIATYYCQQWSSYPYMYTFGQGTKVEIKRTVAAPSVFIFPPSDEQLKSGTASVVCLLNNFYPREAKVQWKVDNALQSGNSQESVTEQDSKDSTYSLSSTLTLSKADYEKHKVYACEVTHQGLSSPVTKSFNRGEC
notes: Humanized anti-FRA antibody, human IgG1 / kappa, unconjugated; also called naked Ab hLK26-IgG1; unconjugated hLK26-IgG1
- MFI [1]: 1150 MFI
- MFI [4]: 1460 MFI

B3: hLK26-T199C-IgG4p-Tap18Hr1 (antibody, name in EU numbering)
heavy: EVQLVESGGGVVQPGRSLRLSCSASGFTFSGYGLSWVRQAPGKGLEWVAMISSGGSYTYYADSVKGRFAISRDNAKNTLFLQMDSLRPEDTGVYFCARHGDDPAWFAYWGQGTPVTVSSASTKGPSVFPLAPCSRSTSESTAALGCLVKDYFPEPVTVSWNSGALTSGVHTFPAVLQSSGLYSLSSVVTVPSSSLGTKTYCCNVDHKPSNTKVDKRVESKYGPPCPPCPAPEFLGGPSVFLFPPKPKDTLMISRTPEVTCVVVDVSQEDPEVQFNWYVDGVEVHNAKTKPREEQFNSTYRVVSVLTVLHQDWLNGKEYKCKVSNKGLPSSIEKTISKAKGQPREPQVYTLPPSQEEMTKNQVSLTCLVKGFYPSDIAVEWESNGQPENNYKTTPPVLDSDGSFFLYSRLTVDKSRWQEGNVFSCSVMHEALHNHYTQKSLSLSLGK
light: DIQLTQSPSSLSASVGDRVTITCSVSSSISSNNLHWYQQKPGKAPKPWIYGTSNLASGVPSRFSGSGSGTDYTFTISSLQPEDIATYYCQQWSSYPYMYTFGQGTKVEIKRTVAAPSVFIFPPSDEQLKSGTASVVCLLNNFYPREAKVQWKVDNALQSGNSQESVTEQDSKDSTYSLSSTLTLSKADYEKHKVYACEVTHQGLSSPVTKSFNRGEC
modifications: Tap18Hr1 linker-drug on the introduced Cys 199 (EU numbering)
notes: Site-specific ADC
- MFI [2]: 966 MFI
- MFI [3]: 898 MFI

B4: hLK26-S442C-IgG4p-Tap18Hr1 (antibody, name in EU numbering)
heavy: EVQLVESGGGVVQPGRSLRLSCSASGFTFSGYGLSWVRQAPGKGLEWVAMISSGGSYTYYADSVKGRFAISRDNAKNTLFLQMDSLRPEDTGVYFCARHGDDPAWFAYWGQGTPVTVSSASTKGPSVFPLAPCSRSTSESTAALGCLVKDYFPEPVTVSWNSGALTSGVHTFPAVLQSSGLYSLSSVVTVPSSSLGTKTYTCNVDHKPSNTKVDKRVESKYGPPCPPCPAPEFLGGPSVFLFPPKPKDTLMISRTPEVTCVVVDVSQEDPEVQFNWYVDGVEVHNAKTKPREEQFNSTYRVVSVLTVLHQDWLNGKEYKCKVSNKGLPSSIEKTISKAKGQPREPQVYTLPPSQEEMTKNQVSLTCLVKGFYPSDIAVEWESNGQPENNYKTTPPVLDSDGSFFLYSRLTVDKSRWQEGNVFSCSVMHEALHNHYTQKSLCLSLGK
light: DIQLTQSPSSLSASVGDRVTITCSVSSSISSNNLHWYQQKPGKAPKPWIYGTSNLASGVPSRFSGSGSGTDYTFTISSLQPEDIATYYCQQWSSYPYMYTFGQGTKVEIKRTVAAPSVFIFPPSDEQLKSGTASVVCLLNNFYPREAKVQWKVDNALQSGNSQESVTEQDSKDSTYSLSSTLTLSKADYEKHKVYACEVTHQGLSSPVTKSFNRGEC
modifications: Tap18Hr1 linker-drug on the introduced Cys 442 (EU numbering)
notes: Site-specific ADC
- MFI [1]: 769 MFI
- MFI [2]: 1880 MFI
- MFI [3]: 479 MFI
- MFI [4]: 1090 MFI

B5: hLK26-T206C-IgG1-Tap18Hr1 (antibody, name in EU numbering)
heavy: not shown
light: DIQLTQSPSSLSASVGDRVTITCSVSSSISSNNLHWYQQKPGKAPKPWIYGTSNLASGVPSRFSGSGSGTDYTFTISSLQPEDIATYYCQQWSSYPYMYTFGQGTKVEIKRTVAAPSVFIFPPSDEQLKSGTASVVCLLNNFYPREAKVQWKVDNALQSGNSQESVTEQDSKDSTYSLSSTLTLSKADYEKHKVYACEVTHQGLSSPVCKSFNRGEC
modifications: Tap18Hr1 linker-drug on the introduced Cys 206 (EU numbering)
notes: Site-specific ADC with kappa light chain mutant
- MFI [2]: 1270 MFI
- MFI [3]: 1180 MFI

B6: hLK26-S442C-IgG1-Tap18Hr1 (antibody, name in EU numbering)
heavy: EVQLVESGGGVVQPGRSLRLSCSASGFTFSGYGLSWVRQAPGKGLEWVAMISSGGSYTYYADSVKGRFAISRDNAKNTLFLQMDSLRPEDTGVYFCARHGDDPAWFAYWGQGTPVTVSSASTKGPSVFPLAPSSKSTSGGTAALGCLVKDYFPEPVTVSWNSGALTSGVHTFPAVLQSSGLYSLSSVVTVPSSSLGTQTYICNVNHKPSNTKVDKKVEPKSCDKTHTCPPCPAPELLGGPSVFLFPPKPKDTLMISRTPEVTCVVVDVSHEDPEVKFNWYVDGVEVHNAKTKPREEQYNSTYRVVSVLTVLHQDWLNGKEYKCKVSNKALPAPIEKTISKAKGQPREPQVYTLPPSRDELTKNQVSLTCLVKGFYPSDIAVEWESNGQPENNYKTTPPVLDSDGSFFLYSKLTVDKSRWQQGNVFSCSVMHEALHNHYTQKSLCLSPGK
light: DIQLTQSPSSLSASVGDRVTITCSVSSSISSNNLHWYQQKPGKAPKPWIYGTSNLASGVPSRFSGSGSGTDYTFTISSLQPEDIATYYCQQWSSYPYMYTFGQGTKVEIKRTVAAPSVFIFPPSDEQLKSGTASVVCLLNNFYPREAKVQWKVDNALQSGNSQESVTEQDSKDSTYSLSSTLTLSKADYEKHKVYACEVTHQGLSSPVTKSFNRGEC
modifications: Tap18Hr1 linker-drug on the introduced Cys 442 (EU numbering)
notes: Site-specific ADC
- MFI [1]: 967 MFI
- MFI [2]: 2080 MFI
- MFI [3]: 605 MFI
- MFI [4]: 1280 MFI

B7: hLK26-L201C-IgG4p-Tap18Hr1 (antibody, name in EU numbering)
heavy: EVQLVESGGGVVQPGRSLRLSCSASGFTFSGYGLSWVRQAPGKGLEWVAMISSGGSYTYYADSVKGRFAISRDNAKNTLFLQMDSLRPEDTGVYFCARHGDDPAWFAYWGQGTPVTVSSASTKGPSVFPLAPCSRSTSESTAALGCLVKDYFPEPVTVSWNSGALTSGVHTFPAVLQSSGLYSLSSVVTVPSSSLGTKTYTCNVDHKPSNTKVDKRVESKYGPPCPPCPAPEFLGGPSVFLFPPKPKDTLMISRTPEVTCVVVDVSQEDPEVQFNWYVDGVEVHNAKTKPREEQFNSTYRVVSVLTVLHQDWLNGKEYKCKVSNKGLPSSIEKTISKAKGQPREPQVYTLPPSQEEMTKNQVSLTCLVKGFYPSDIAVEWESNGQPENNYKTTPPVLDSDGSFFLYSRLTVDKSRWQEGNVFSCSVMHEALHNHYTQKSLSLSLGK
light: DIQLTQSPSSLSASVGDRVTITCSVSSSISSNNLHWYQQKPGKAPKPWIYGTSNLASGVPSRFSGSGSGTDYTFTISSLQPEDIATYYCQQWSSYPYMYTFGQGTKVEIKRTVAAPSVFIFPPSDEQLKSGTASVVCLLNNFYPREAKVQWKVDNALQSGNSQESVTEQDSKDSTYSLSSTLTLSKADYEKHKVYACEVTHQGCSSPVTKSFNRGEC
modifications: Tap18Hr1 linker-drug on the introduced Cys 201 (EU numbering)
notes: as for B5
- MFI [2]: 1000 MFI
- MFI [3]: 890 MFI

B8: hLK26-T155C-IgG1-Tap18Hr1 (antibody, name in EU numbering)
heavy: not shown
light: DIQLTQSPSSLSASVGDRVTITCSVSSSISSNNLHWYQQKPGKAPKPWIYGTSNLASGVPSRFSGSGSGTDYTFTISSLQPEDIATYYCQQWSSYPYMYTFGQGTKVEIKRTVAAPSVFIFPPSDEQLKSGTASVVCLLNNFYPREAKVQWKVDNALQSGNSQESVTEQDSKDSTYSLSSTLTLSKADYEKHKVYACEVTHQGLSSPVTKSFNRGEC
modifications: Tap18Hr1 linker-drug on the introduced Cys 155 (EU numbering)
notes: Site-specific ADC
- MFI [1]: 1060 MFI
- MFI [2]: 2470 MFI
- MFI [3]: 649 MFI
- MFI [4]: 1450 MFI
